Like-named read-outs stand apart in the source and are kept apart here.
What was measured:
[1] = tested on: N-terminal amino acids of peptides; assay: Single-molecule terminal amino acid recognition by labeled recognition molecule (dwell time analysis); assay type: binding; settings: terminal leucine residue
Method: An adaptor protein involved in proteolytic pathways was identified as a potential candidate for use as a labeled recognition molecule for detecting N-terminal aromatic residues. The adaptor protein, ClpS2 from an α-proteobacterium (A. tumefaciens), was expressed and labeled at an exposed cysteine residue. […] The exposed cysteine residue was labeled with a rhodamine dye (ATTO 532).
Peptides having different N-terminal aromatic residues were prepared to test whether the labeled ClpS2 was capable of N-terminal amino acid discrimination at the single molecule level.
FIG. 19C is a plot showing discriminant pulse durations (time duration of signal peaks) among the three N-terminal residues when reversibly bound by labeled ClpS2. FIG. 19D is a plot showing discriminant interpulse durations (time duration between signal pulses) among the three N-terminal residues. […] Mean pulse duration for the different N-terminal residues is visualized by histograms (A)-(B) and layered histogram (C).

[2] = tested on: amino acid at a terminal position of a polypeptide; assay: Amino acid binding preference of recognition proteins (Tables 1 and 2); settings: Table 1, ClpS proteins; amino acid identity at a terminal position of a polypeptide; inferred from literature and/or demonstrated by the inventors
Source text: It should be appreciated that these sequences and other examples described herein are meant to be non-limiting, and recognition molecules in accordance with the application can include any homologs, variants thereof, or fragments thereof minimally containing domains or subdomains responsible for peptide recognition.

[3] = tested on: LF, LA, IR, IA, VR, and VA peptides; assay: Binder-on-chip single-molecule assay (PS372); assay type: binding
Method: Binder-on-chip experiments were performed for PS372 with LF, LA, IR, IA, VR, and VA peptides to evaluate recognition by signal pulse detection in single-molecule assays. […] For comparison, the mean pulse width observed with the L-binder teClpS was 768 ms (˜37% shorter than PS372).

[4] = tested on: immobilized peptides containing an N-terminal amino acid of interest (XAKLDEESILKQK; XXKLDEESILKQK); assay: Biolayer interferometry screening of ClpS homologs; assay type: binding; settings: for binding to isoleucine peptides, effect of penultimate amino acid: IR, IQ, IA peptides; for binding to valine peptides, effect of penultimate amino acid: VA, VR peptides
Method: The amino acid binding profile of each new homolog was evaluated by biolayer interferometry. ClpS proteins with known binding profiles (atClpS2-V1, atClpS1, and teClpS) were included as controls. In these assays, peptides containing an N-terminal amino acid of interest were immobilized on a biolayer interferometry sensor surface, allowed to bind to ClpS protein, and incubated in buffer to allow the ClpS molecules to dissociate. The binding response (nm) and dissociation off-rate (kdis, s^−1) were measured using a kinetic model. Measurements with each ClpS protein were carried out at 30° C. for the amino acids I, V, M, F. Y, and W, along with D, E, A, and R as negative controls. All peptides contained a penultimate alanine (A) and consisted of the sequence XAKLDEESILKQK (SEQ ID NO: 238).
Results from the biolayer interferometry screening of 61 ClpS homologs (58 new homologs, 3 reference homologs) are shown in FIG. 29B. Response (y-axis) is plotted against the inverse of dissociation rate for eight different dipeptides (data not shown for negative controls DA, AA, and RA). In these plots, higher values on the y-axis correspond to stronger association response and higher values on the x-axis indicate slower dissociation rates.
The effect of penultimate amino acids on isoleucine and valine binding by PS372 were evaluated by measuring binding to peptides with N-terminal IR, IQ, and VR by biolayer interferometry (peptide sequence: XXKLDEESILKQK (SEQ ID NO: 291)). Measurements were also obtained with teClpS for comparison.

[5] = tested on: FITC-labeled peptide (XAKLDEESILKQK-FITC (SEQ ID NO: 238)); assay: Fluorescence polarization of ClpS:streptavidin complexes; assay type: binding; settings: 30 minute incubation at 23° C.
Method: ClpS homologs were evaluated by fluorescence polarization to measure the interaction of a FITC-labeled peptide (XAKLDEESILKQK-FITC (SEQ ID NO: 238)) with ClpS:streptavidin complexes. Measurements of polarization response (millipolarization, mP) and total intensity for I, V, L, F, Y, and W were performed in a high-throughput 384-well plate format, using 480 nm excitation and 530 nm emission wavelength with readings collected after 30 minute incubation at 23° C. The results with in-solution binding validated that PS372 binds with leucine, isoleucine, and valine with strength of response in the order LA>IA>VA (FIG. 29E). Binding responses of atClpS2-V1 were FA>YA>WA, and those of teClpS were LA>FA>YA>WA.

[6] = tested on: peptides with different N-terminal amino acids, penultimate alanine; assay: Biolayer interferometry of multivalent amino acid binders; assay type: binding
Method: The amino acid binding profile of each Bis-atClpS2-V1 binder (PS609, PS610, and PS611) was evaluated by biolayer interferometry as described above. The monovalent atClpS2-V1 was run as a control. Measurements with each binder were carried out for the amino acids F, Y, and W, along with I, L, M, and V as negative controls. All peptides contained a penultimate alanine (A). Response curves for the tandem binders PS609, PS610, and PS611 are shown in FIGS. 35B, 35C, and 35D, respectively.
The multivalent binder PS612 is a polypeptide that contains tandem copies of two different ClpS protein monomers (atClpS2-V1 and PS372). The amino acid binding profile of PS612 was evaluated by biolayer interferometry as described above. The monovalent binders atClpS2-V1 and PS372 were separately run as controls.
The multivalent binder PS614 is a polypeptide that contains two copies of the ClpS binder PS372 oriented in tandem. The amino acid binding profile of PS614 was evaluated by biolayer interferometry as described above.
The multivalent binders PS637, PS638, and PS639 are polypeptides that each contain two copies of the ClpS binder PS557 oriented in tandem and separated by Linker 1, Linker 2, and Linker 3, respectively. The amino acid binding profiles of each binder was evaluated by biolayer interferometry as described above.

[7] = tested on: N-terminal isoleucine peptide and N-terminal leucine peptide; assay: Peptide-on-chip recognition assay with labeled PS372; assay type: binding
Chain of N-terminal isoleucine peptide and N-terminal leucine peptide (P22629 25-183 partner, one chain of several): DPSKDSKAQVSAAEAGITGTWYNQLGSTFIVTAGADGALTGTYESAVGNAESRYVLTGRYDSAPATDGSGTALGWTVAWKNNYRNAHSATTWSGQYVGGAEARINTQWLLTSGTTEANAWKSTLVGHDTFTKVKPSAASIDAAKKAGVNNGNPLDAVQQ

dye-labeled RL peptide = assay: Peptide-on-chip recognition assay for N-terminal arginine peptide; assay type: binding
Method: Peptide-on-chip recognition assays for N-terminal arginine peptide were performed with PS621 and PS528. Both PS528 and PS621 recognized N-terminal R, and binding to dye-labeled RL peptide at the single-molecule level was confirmed in these recognition assays, with average pulse width of approximately 60 ms.

[8] = tested on: immobilized peptides containing N-terminal R, K or H; assay: Biolayer interferometry of UBR-box domain homologs; assay type: binding
Method: The amino acid binding properties of UBR-box domain homologs were evaluated by biolayer interferometry. Peptides containing an N-terminal arginine (R), followed by different amino acids in the penultimate position, were immobilized on a biolayer interferometry sensor surface, allowed to bind to UBR-box protein, and incubated in buffer to allow the UBR-box molecules to dissociate. […] FIG. 32C is a heatmap showing results measured for 24 UBR-box homologs against 14 polypeptides containing N-terminal R followed by different amino acids in the penultimate position.
UBR proteins bind to the basic N-terminal residues R, K, and H as part of the conserved N-end rule pathway. To identify high-affinity UBR proteins with properties favorable for use in sequencing, a diverse panel of uncharacterized UBR-box domain homologs from 44 species (PS501-PS544) was designed. UBR-box domain homologs were expressed, purified, and evaluated for binding to N-terminal amino acids by biolayer interferometry. Measurements were carried out at 30° C. for each protein for R, K and H binding. The amino-acid binding profile of each new homolog was first evaluated by biolayer interferometry using a single-point screening assay. All peptides in this screen contained a penultimate alanine (A) and consisted of the sequence XAKLDEESILKQK (SEQ ID NO: 238), where X is R, K, or H.
To evaluate the effect of penultimate amino acids on arginine binding, UBR box-domain homologs were evaluated for binding to 14 different peptides with N-terminal RX (peptide sequence: RXGGGDDDFFK (SEQ ID NO: 241)). The selected RX dipeptides are the 14 most frequently found in the human proteome.

[9] = tested on: amino acid at a terminal position of a polypeptide; settings: Table 2; amino acid identity at a terminal position (phosphotyrosine also internal); inferred from literature and/or demonstrated by the inventors; cited from earlier work
[10] = tested on: labeled peptide (XAKLDEESILKQK-FITC (SEQ ID NO: 238)); RA, KA, HA; assay: Single point fluorescence polarization assay of UBR-streptavidin complex; assay type: binding
Method: Single point fluorescence polarization assays were then performed for selected candidates. These assays measured the interaction of labeled peptide (XAKLDEESILKQK-FITC (SEQ ID NO: 238)) with UBR-streptavidin complex in a format in which these molecules are free in solution. Measurements of polarization response (millipolarization, mP) and total intensity for RA, KA, and HA peptides were performed.

B1: teClpS: ClpS protein, SEQ ID NO: 107 (protein, listed as Thermosynechococcus elongatus)
chain: MPQERQQVTRKHYPNYKVIVLNDDFNTFQHVAACLMKYIPNMTSDRAWELTNQVHYEGQAIVWVGPQEQAELYHEQLLRAGLTMAPLEPE
- mean pulse duration [1]: 0.71 s
- Binding Pref. [2]: F, W, Y, L
- mean pulse width ([3]; L-binder comparison, peptide not stated): 768 ms
- binding to isoleucine peptides, effect of penultimate amino acid [4]: minor response with very fast dissociation for IR peptide only
- binding to valine peptides, effect of penultimate amino acid [4]: no response with V peptides
- order of strength of polarization response [5]: LA>FA>YA>WA

B2: PS372: ClpS homolog binding leucine, isoleucine and valine, SEQ ID NO: 5 (protein)
chain: MAFPARGKTAPKNEVRRQPPYNVILLNDDDHTYRYVIEMLQKIFGFPPEKGFQIAEEVDRTGRVILLTTSKEHAELKQDQVHSYGPDPYLGRPCSGSMTCVIEPAV
- Binding Pref. [2]: L, I, V
- mean pulse width ([3]; IA peptide): 70 ms
- mean pulse width ([3]; IR peptide): 83 ms
- mean pulse width ([3]; LA peptide): 876 ms
- mean pulse width ([3]; LF peptide): 1207 ms
- amino acids bound (biolayer interferometry) ([4]; 30° C., penultimate alanine): binder of leucine, isoleucine, and valine
- binding to the F, Y, or W peptides ([4]; 30° C., penultimate alanine): did not show binding
- binding to isoleucine peptides, effect of penultimate amino acid [4]: binds IQ and IA with higher affinity relative to IR
- binding to valine peptides, effect of penultimate amino acid [4]: binds well with VA and has negligible response with VR
- N-terminal amino acids bound (biolayer interferometry) [6]: binds N-terminal I, L, and V
- order of strength of polarization response [5]: LA>IA>VA

B3: dye-labeled PS372: PEGylated, biotinylated PS372 conjugated 1:1 with streptavidin and a biotinylated Cy3B-labeled oligonucleotide (conjugate)
chain: MAFPARGKTAPKNEVRRQPPYNVILLNDDDHTYRYVIEMLQKIFGFPPEKGFQIAEEVDRTGRVILLTTSKEHAELKQDQVHSYGPDPYLGRPCSGSMTCVIEPAV
- mean pulse width ([7]; N-terminal isoleucine peptide (IAALAAVAADDDW (SEQ ID NO: 239))): 78 ms
- mean pulse width ([7]; N-terminal leucine peptide (LAAIAAFAADDDW (SEQ ID NO: 292))): 957 ms

B4: PS621: UBR-box domain homolog, SEQ ID NO: 181 (protein, listed as Kluyveromyces marxianus)
chain: MHSKFSHAGRICGAKFKVGEPIYRCKECSFDDTCVLCVNCFNPKDHTGHHVYTTICTEFNNGICDCGDKEAWNHTLFCKAEEG
- average pulse width (dye-labeled RL peptide): approximately 60 ms
- binding range for RX dipeptides ([8]; 14 peptides RXGGGDDDFFK (SEQ ID NO: 241)): extensive binding range for RX dipeptides
- binding to RA/KA/HA peptides (single-point screening) ([8]; 30° C., XAKLDEESILKQK): favorable binding characteristics with results that were similar to PS528
- Binding Pref. [9]: K, R, H
- polarization response with RA peptide [10]: bind to RA peptides with strong responses

Source: patent publication US12065466B2, “Methods and compositions for protein sequencing” (Quantum-Si Incorporated, priority 2020, dated 2024)
